Publication PMC9482650, “Quantitative fragmentomics allow affinity mapping of interactomes” (Nature Communications, 2022)

T1: APBA1_1, Q02410
T1 sequence (Q02410 651-752, limits assumed, looked up): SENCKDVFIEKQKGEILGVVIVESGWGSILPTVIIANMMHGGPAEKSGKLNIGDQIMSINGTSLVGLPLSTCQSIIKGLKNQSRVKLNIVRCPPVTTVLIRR

T2: APBA1_2, Q02410
T2 sequence (Q02410 742-832, limits assumed, looked up): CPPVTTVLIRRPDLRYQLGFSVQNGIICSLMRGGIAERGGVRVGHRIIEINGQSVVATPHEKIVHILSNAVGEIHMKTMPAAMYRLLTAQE

T3: ARHGAP21, Q5T5U3
T3 sequence (Q5T5U3 45-169, limits assumed, looked up): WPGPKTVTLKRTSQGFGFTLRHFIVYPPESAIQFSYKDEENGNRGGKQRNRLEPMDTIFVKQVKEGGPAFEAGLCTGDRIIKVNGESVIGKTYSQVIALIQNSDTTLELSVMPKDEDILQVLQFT

T4: DLG3_3, Q92796
T4 sequence (Q92796 374-475, limits assumed, looked up): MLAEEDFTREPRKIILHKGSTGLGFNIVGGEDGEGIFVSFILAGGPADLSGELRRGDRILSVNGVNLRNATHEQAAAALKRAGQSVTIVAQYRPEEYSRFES

T5: MPDZ_10, O75970
T5 sequence (O75970 1624-1722, limits assumed, looked up): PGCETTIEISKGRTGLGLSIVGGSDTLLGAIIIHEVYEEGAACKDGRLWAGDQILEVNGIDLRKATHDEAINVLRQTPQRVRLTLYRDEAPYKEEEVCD

T6: MPDZ_5, O75970
T6 sequence (O75970 695-796, limits assumed, looked up): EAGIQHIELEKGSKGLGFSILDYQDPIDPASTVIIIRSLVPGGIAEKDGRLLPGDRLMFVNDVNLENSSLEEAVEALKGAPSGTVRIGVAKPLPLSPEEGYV

T7: MPP7, Q5T2T1
T7 sequence (Q5T2T1 134-230, limits assumed, looked up): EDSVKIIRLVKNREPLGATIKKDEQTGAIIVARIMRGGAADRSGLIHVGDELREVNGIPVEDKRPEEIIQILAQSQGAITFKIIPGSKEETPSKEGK

T8: NHERF3_1, Q5T2W1
T8 sequence (Q5T2W1 4-100, limits assumed, looked up): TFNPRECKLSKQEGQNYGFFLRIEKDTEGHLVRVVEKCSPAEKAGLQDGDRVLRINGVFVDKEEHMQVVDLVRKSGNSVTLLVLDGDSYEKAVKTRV

T9: PDZD2_2, O15018
T9 sequence (O15018 329-429, limits assumed, looked up): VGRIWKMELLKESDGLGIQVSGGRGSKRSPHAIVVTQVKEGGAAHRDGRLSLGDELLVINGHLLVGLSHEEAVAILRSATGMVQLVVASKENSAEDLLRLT

T10: TX1BP3, O14907
T10 sequence (O14907 10-122, limits assumed, looked up): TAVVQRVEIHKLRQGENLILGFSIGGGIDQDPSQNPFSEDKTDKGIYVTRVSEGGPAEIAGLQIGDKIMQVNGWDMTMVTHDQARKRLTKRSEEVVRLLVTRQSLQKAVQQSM


Molecular target: T1, APBA1_1, Q02410
Assay: holdup assay
Parameters: key: below the threshold = too weak to quantify, mostly under pKd 3.1 to 4
Settings: plain residues with an end cap or a label only (N-terminal biotin on a linker: ado-ado)

Binder | pKd
TGLWKHETTV [ADGRA3, Q8IWK6] | below the threshold

Molecular target: T2, APBA1_2, Q02410
Assay: holdup assay
Parameters: key: below the threshold = too weak to quantify, mostly under pKd 3.1 to 4
Settings: plain residues with an end cap or a label only (N-terminal biotin on a linker: ado-ado)

Binder | pKd
TGLWKHETTV [ADGRA3, Q8IWK6] | 3.59

Molecular target: T3, ARHGAP21, Q5T5U3
Assay: holdup assay
Parameters: key: below the threshold = too weak to quantify, mostly under pKd 3.1 to 4
Settings: plain residues with an end cap or a label only (N-terminal biotin on a linker: ado-ado)

Binder | pKd
TGLWKHETTV [ADGRA3, Q8IWK6] | 3.92

Molecular target: T4, DLG3_3, Q92796
Assay: holdup assay
Parameters: key: below the threshold = too weak to quantify, mostly under pKd 3.1 to 4
Settings: plain residues with an end cap or a label only (N-terminal biotin on a linker: ado-ado)

Binder | pKd
TGLWKHETTV [ADGRA3, Q8IWK6] | 4.77

Molecular target: DLG4_1, P78352
Assay: holdup assay
Parameters: key: below the threshold = too weak to quantify, mostly under pKd 3.1 to 4
Settings: plain residues with an end cap or a label only (N-terminal biotin on a linker: ado-ado)

Sequence of DLG4_1, P78352 (P78352 62-152): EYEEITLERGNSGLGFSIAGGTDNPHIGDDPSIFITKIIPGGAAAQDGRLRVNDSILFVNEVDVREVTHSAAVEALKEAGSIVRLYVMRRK

Binder | pKd
TGLWKHETTV [ADGRA3, Q8IWK6] | 5.21

Molecular target: GRID2IP_2, A4D2P6
Assay: holdup assay
Parameters: key: below the threshold = too weak to quantify, mostly under pKd 3.1 to 4
Settings: plain residues with an end cap or a label only (N-terminal biotin on a linker: ado-ado)

Sequence of GRID2IP_2, A4D2P6 (A4D2P6 272-370): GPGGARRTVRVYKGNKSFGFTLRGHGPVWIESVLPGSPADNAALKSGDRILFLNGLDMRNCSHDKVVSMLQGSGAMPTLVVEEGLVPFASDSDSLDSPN

Binder | pKd
TGLWKHETTV [ADGRA3, Q8IWK6] | below the threshold

Molecular target: GRIP2_3, Q9C0E4
Assay: holdup assay
Parameters: key: below the threshold = too weak to quantify, mostly under pKd 3.1 to 4
Settings: plain residues with an end cap or a label only (N-terminal biotin on a linker: ado-ado)

Sequence of GRIP2_3, Q9C0E4 (Q9C0E4 238-339): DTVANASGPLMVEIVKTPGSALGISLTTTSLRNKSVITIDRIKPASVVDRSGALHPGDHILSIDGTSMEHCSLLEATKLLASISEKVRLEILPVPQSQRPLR

Binder | pKd
TGLWKHETTV [ADGRA3, Q8IWK6] | below the threshold

Molecular target: GRIP2_5, Q9C0E4
Assay: holdup assay
Parameters: key: below the threshold = too weak to quantify, mostly under pKd 3.1 to 4
Settings: plain residues with an end cap or a label only (N-terminal biotin on a linker: ado-ado)

Sequence of GRIP2_5, Q9C0E4 (Q9C0E4 544-642): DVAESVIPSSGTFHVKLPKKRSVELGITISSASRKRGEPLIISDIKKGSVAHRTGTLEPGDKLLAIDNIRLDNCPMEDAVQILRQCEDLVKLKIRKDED

Binder | pKd
TGLWKHETTV [ADGRA3, Q8IWK6] | below the threshold

Molecular target: IL16_1, Q14005
Assay: holdup assay
Parameters: key: below the threshold = too weak to quantify, mostly under pKd 3.1 to 4
Settings: plain residues with an end cap or a label only (N-terminal biotin on a linker: ado-ado)

Sequence of IL16_1, Q14005 (Q14005 210-306): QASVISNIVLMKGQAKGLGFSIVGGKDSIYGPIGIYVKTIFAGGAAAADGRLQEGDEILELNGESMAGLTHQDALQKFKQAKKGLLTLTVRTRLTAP

Binder | pKd
TGLWKHETTV [ADGRA3, Q8IWK6] | 4.09

Molecular target: Inadl_4, Q8NI35
Assay: holdup assay
Parameters: key: below the threshold = too weak to quantify, mostly under pKd 3.1 to 4
Settings: plain residues with an end cap or a label only (N-terminal biotin on a linker: ado-ado)

Sequence of Inadl_4, Q8NI35 (Q8NI35 547-651): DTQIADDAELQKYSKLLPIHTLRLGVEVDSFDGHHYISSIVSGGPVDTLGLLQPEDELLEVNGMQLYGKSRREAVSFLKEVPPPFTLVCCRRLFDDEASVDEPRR

Binder | pKd
TGLWKHETTV [ADGRA3, Q8IWK6] | below the threshold

Molecular target: LDB3, O75112
Assay: holdup assay
Parameters: key: below the threshold = too weak to quantify, mostly under pKd 3.1 to 4
Settings: plain residues with an end cap or a label only (N-terminal biotin on a linker: ado-ado)

Sequence of LDB3, O75112 (O75112 1-94): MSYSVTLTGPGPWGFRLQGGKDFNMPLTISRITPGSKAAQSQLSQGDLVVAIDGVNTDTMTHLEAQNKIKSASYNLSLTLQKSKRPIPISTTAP

Binder | pKd
TGLWKHETTV [ADGRA3, Q8IWK6] | below the threshold

Molecular target: MAGI1_1, Q96QZ7
Assay: holdup assay
Parameters: key: below the threshold = too weak to quantify, mostly under pKd 3.1 to 4
Settings: plain residues with an end cap or a label only (N-terminal biotin on a linker: ado-ado)

Sequence of MAGI1_1, Q96QZ7 (Q96QZ7 1-106): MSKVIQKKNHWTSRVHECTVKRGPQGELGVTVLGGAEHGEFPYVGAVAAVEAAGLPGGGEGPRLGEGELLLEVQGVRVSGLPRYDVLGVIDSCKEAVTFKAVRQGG

Binder | pKd
TGLWKHETTV [ADGRA3, Q8IWK6] | below the threshold

Molecular target: MAGI2_3, Q86UL8
Assay: holdup assay
Parameters: key: below the threshold = too weak to quantify, mostly under pKd 3.1 to 4
Settings: plain residues with an end cap or a label only (N-terminal biotin on a linker: ado-ado)

Sequence of MAGI2_3, Q86UL8 (Q86UL8 600-682): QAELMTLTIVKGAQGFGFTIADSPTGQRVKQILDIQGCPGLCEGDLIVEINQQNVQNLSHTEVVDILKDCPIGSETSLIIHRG

Binder | pKd
TGLWKHETTV [ADGRA3, Q8IWK6] | 4.02

Molecular target: MAST2, Q6P0Q8
Assay: holdup assay
Parameters: key: below the threshold = too weak to quantify, mostly under pKd 3.1 to 4
Settings: plain residues with an end cap or a label only (N-terminal biotin on a linker: ado-ado)

Sequence of MAST2, Q6P0Q8 (Q6P0Q8 1099-1202): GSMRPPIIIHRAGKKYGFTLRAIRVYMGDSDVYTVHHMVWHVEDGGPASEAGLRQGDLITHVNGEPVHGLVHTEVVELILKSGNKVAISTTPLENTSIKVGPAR

Binder | pKd
TGLWKHETTV [ADGRA3, Q8IWK6] | 5.47

Molecular target: T5, MPDZ_10, O75970
Assay: holdup assay
Parameters: key: below the threshold = too weak to quantify, mostly under pKd 3.1 to 4
Settings: plain residues with an end cap or a label only (N-terminal biotin on a linker: ado-ado)

Binder | pKd
TGLWKHETTV [ADGRA3, Q8IWK6] | below the threshold

Molecular target: T6, MPDZ_5, O75970
Assay: holdup assay
Parameters: key: below the threshold = too weak to quantify, mostly under pKd 3.1 to 4
Settings: plain residues with an end cap or a label only (N-terminal biotin on a linker: ado-ado)

Binder | pKd
TGLWKHETTV [ADGRA3, Q8IWK6] | below the threshold

Molecular target: T7, MPP7, Q5T2T1
Assay: holdup assay
Parameters: key: below the threshold = too weak to quantify, mostly under pKd 3.1 to 4
Settings: plain residues with an end cap or a label only (N-terminal biotin on a linker: ado-ado)

Binder | pKd
TGLWKHETTV [ADGRA3, Q8IWK6] | below the threshold

Molecular target: NHERF2_2, Q15599
Assay: holdup assay
Parameters: key: below the threshold = too weak to quantify, mostly under pKd 3.1 to 4
Settings: plain residues with an end cap or a label only (N-terminal biotin on a linker: ado-ado)

Sequence of NHERF2_2, Q15599 (Q15599 142-238): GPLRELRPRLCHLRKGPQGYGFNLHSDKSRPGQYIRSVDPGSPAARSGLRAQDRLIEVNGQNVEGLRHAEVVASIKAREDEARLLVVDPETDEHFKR

Binder | pKd
TGLWKHETTV [ADGRA3, Q8IWK6] | below the threshold

Molecular target: T8, NHERF3_1, Q5T2W1
Assay: holdup assay
Parameters: key: below the threshold = too weak to quantify, mostly under pKd 3.1 to 4
Settings: plain residues with an end cap or a label only (N-terminal biotin on a linker: ado-ado)

Binder | pKd
TGLWKHETTV [ADGRA3, Q8IWK6] | 3.63

Molecular target: NHERF4_2, Q86UT5
Assay: holdup assay
Parameters: key: below the threshold = too weak to quantify, mostly under pKd 3.1 to 4
Settings: plain residues with an end cap or a label only (N-terminal biotin on a linker: ado-ado)

Sequence of NHERF4_2, Q86UT5 (Q86UT5 220-308): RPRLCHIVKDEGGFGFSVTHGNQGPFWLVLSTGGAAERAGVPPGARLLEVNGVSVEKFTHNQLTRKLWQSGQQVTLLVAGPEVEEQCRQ

Binder | pKd
TGLWKHETTV [ADGRA3, Q8IWK6] | below the threshold

Molecular target: NHERF4_4, Q86UT5
Assay: holdup assay
Parameters: key: below the threshold = too weak to quantify, mostly under pKd 3.1 to 4
Settings: plain residues with an end cap or a label only (N-terminal biotin on a linker: ado-ado)

Sequence of NHERF4_4, Q86UT5 (Q86UT5 464-550): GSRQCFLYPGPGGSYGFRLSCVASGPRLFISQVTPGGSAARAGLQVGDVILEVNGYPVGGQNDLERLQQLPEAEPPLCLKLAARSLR

Binder | pKd
TGLWKHETTV [ADGRA3, Q8IWK6] | 3.87

Molecular target: NOS1, P29475
Assay: holdup assay
Parameters: key: below the threshold = too weak to quantify, mostly under pKd 3.1 to 4
Settings: plain residues with an end cap or a label only (N-terminal biotin on a linker: ado-ado)

Sequence of NOS1, P29475 (P29475 9-101): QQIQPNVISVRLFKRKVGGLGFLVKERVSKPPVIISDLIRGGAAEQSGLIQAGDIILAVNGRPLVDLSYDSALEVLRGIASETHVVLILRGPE

Binder | pKd
TGLWKHETTV [ADGRA3, Q8IWK6] | below the threshold

Molecular target: PARD3_3, Q8TEW0
Assay: holdup assay
Parameters: key: below the threshold = too weak to quantify, mostly under pKd 3.1 to 4
Settings: plain residues with an end cap or a label only (N-terminal biotin on a linker: ado-ado)

Sequence of PARD3_3, Q8TEW0 (Q8TEW0 582-685): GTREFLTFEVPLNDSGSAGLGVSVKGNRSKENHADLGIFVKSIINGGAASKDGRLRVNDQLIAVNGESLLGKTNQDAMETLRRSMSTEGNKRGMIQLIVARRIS

Binder | pKd
TGLWKHETTV [ADGRA3, Q8IWK6] | 3.54

Molecular target: T9, PDZD2_2, O15018
Assay: holdup assay
Parameters: key: below the threshold = too weak to quantify, mostly under pKd 3.1 to 4
Settings: plain residues with an end cap or a label only (N-terminal biotin on a linker: ado-ado)

Binder | pKd
TGLWKHETTV [ADGRA3, Q8IWK6] | 4.2

Molecular target: PICK1, Q9NRD5
Assay: holdup assay
Parameters: key: below the threshold = too weak to quantify, mostly under pKd 3.1 to 4
Settings: plain residues with an end cap or a label only (N-terminal biotin on a linker: ado-ado)

Sequence of PICK1, Q9NRD5 (Q9NRD5 17-115): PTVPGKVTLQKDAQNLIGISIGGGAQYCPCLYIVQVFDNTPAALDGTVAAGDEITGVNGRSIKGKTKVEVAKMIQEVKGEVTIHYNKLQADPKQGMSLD

Binder | pKd
TGLWKHETTV [ADGRA3, Q8IWK6] | 4.16

Molecular target: SCRIB_2, Q14160
Assay: holdup assay
Parameters: key: below the threshold = too weak to quantify, mostly under pKd 3.1 to 4
Settings: plain residues with an end cap or a label only (N-terminal biotin on a linker: ado-ado)

Sequence of SCRIB_2, Q14160 (Q14160 857-960): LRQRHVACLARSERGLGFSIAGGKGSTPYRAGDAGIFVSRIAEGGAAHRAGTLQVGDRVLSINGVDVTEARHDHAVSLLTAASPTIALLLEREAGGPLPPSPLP

Binder | pKd
TGLWKHETTV [ADGRA3, Q8IWK6] | 4.56

Molecular target: T10, TX1BP3, O14907
Assay: holdup assay
Parameters: key: below the threshold = too weak to quantify, mostly under pKd 3.1 to 4
Settings: plain residues with an end cap or a label only (N-terminal biotin on a linker: ado-ado)

Binder | pKd
TGLWKHETTV [ADGRA3, Q8IWK6] | 5.08
